Assay results: publication PMC2678197 (2009)
Where no end group is shown, it is not given here. [ ]: non-standard residue; d: D form. sY = N[C@@H](Cc1ccc(OS(=O)(=O)O)cc1)C(=O)O

How the values were obtained:
Assay in all cases: NMR
CCR3 peptide Su16 8-23 = biological target: T1, CCR3 peptide Su16 8-23 (Homo sapiens, UniProt P51677)
T1 chain: VETFGTTS[sY]YDDVGLL

CCR3 peptide Su0 8-23 = biological target: T2, CCR3 peptide Su0 8-23 (Homo sapiens, UniProt P51677)
T2 chain: VETFGTTSYYDDVGLL

CCR3 peptide Su17 8-23 = biological target: T3, CCR3 peptide Su17 8-23 (Homo sapiens, UniProt P51677)
T3 chain: VETFGTTSY[sY]DDVGLL

B1: eotaxin (protein)
chain: not shown
Question: With B1 as the binder, how does the Kd (CCR3 peptide Su16 8-23) read?
Answer: Its Kd is under 5 µM.

Question: And the Kd (CCR3 peptide Su0 8-23)?
Answer: The Kd was 140 µM.

Question: What about the Kd (CCR3 peptide Su17 8-23) of the same binder?
Answer: The Kd was 22 µM.
